One data set deals with Arg411 (UniProt position 411, EELERRDVISH). Description: kinetics (anaerobic stopped-flow spectrophotometry). Conditions: 4 °C, 100 mM NaCl, 50 mM Bis-Tris propane (pH 6-9) or 50 mM CAPS (pH >9), 10% glycerol, reduced FAD (flavin hydroquinone) enzyme in complex with urocanate, folded (unfolding above pH 10.5 by CD).
The target of data set [1] is T1, UrdA′ (isolated FAD domain of urocanate reductase) (Shewanella oneidensis, UniProt Q8CVD0).
T1 construct: N-terminal FMN domain removed), C-terminal His tag, pET29b, E. coli BL21 (DE3); noncovalent FAD
T1 sequence (Q8CVD0 130-582): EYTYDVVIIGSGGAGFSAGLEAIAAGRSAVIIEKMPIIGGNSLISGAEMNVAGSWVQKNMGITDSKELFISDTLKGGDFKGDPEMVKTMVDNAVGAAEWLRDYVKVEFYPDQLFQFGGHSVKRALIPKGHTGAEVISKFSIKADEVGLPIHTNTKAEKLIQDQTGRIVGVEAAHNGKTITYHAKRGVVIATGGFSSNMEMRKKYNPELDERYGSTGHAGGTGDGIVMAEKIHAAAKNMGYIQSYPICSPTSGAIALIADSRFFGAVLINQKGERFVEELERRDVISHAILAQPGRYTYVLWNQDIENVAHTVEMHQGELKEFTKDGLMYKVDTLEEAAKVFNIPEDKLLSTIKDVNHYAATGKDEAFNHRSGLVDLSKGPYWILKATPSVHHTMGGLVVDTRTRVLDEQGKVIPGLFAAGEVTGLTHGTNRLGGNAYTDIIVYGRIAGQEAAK
Description: copurification; absorbance spectrum before and after SDS/heat release of FAD. The format is binding. Conditions: noncovalent; pH 7.

The source of these data is paper PMC10882135, “Rapid reaction studies on the chemistry of flavin oxidation in urocanate reductase” (The Journal of Biological Chemistry, 2024).

As a reminder, the pKa is the negative logarithm of the acid dissociation constant. Read a high pKa as a group that holds its proton tightly. In the data set with Arg411, “Urocanate reductase, isolated FAD-binding C-terminal domain (UrdA') (Shewanella oneidensis MR-1)” came in with a pKa of 9.4 ± 0.1.
With `Cc1cc2nc3c(=O)[nH]c(=O)nc-3n(C[C@H](O)[C@H](O)[C@H](O)COP(=O)(O)OP(=O)(O)OC[C@H]3O[C@@H](n4cnc5c(N)ncnc54)[C@H](O)[C@@H]3O)c2cc1C` [FAD], in data set [1], the “copurification; absorbance spectrum before and after SDS/heat release of FAD” value is “extinction coefficient of FAD bound to the variants was then calculated”.
